The text below walks through data of PMC3258132 (Nucleic Acids Research, 2011).

The target of data set [1] is T1, L1 ORF1p (Homo sapiens (L1.3, Ta-1 subfamily of …, UniProt Q9UN81)). Description: filter binding.
Data set [2] deals with the molecule itself. Nature of the data set: AUC.
Data set [3] concerns the target T1, L1 ORF1p. Nature of the data set: EMSA. A general note: A gel shift assay detects complexes by their altered migration in electrophoresis.
The target in data set [4] is T1, L1 ORF1p. Nature of the data set: EMSA. This is another data set of the same source.
Data set [5] concerns the molecule itself. Nature of the data set: AUC. This is another data set of the same source.
Data set [6] concerns the molecule itself. Nature of the data set: AUC. This is another data set of the same source.
Data set [7] deals with T1, L1 ORF1p. Description: filter binding. The source holds these as a separate data set.
Data set [8] deals with T1, L1 ORF1p. Nature of the data set: filter binding. The source holds these as a separate data set.
Data set [9] concerns the target T1, L1 ORF1p. Description: filter binding. This is another data set of the same source.
Data set [10] has as its target T1, L1 ORF1p. Description: EMSA. The source holds these as a separate data set.

Read-outs that look alike come from different tables or passages of the source.

Turning to ACCUGCACAAUGUGCACAUGAAAAAAAAAA (ssRNA) [r30_3'utr-a], in the data set with L1 ORF1p [1], the “apparent K (half saturation)” value was roughly 1 nM.

B1: human L1 ORF1 protein (ORF1p), full length, expressed in insect cells (natural protein)
chain: GMGKKQNRKTGNSKTQSASPPPKERSSSPATEQSWMENDFDELREEGFRRSNYSELREDIQTKGKEVENFEKNLEECITRITNTEKCLKELMELKTKARELREECRSLRSRCDQLEERVSAMEDEMNEMKREGKFREKRIKRNEQSLQEIWDYVKRPNLRLIGVPESDVENGTKLENTLQDIIQENFPNLARQANVQIQEIQRTPQRYSSRRATPRHIIVRFTKVEMKEKMLRAAREKGRVTLKGKPIRLTADLSAETLQARREWGPIFNILKEKNFQPRISYPAKLSFISEGEIKYFIDKQMLRDFVTTRPALKELLKEALNMERNNRYQPLQNHAKM
In the case of B1, the stoichiometry N (in general, the number of molecules, sites or subunits per partner or assembly) in “AUC [2]” came to 3.

B2: d58_pT-b (ssDNA)
DNA: GAGAGATTTTTTTTTTTTTTTTTTTTTTTTTTTTTTTTTTTTTTTTTTTTTCCAGAGC
B2: in the data set with L1 ORF1p [3], the binding result is given as “binds”.

B3: r60_U (ssRNA)
RNA: UUUUUUUUUUUUUUUUUUUUUUUUUUUUUUUUUUUUUUUUUUUUUUUUUUUUUUUUUUUU
As to B3, in the data set with L1 ORF1p [4], the binding result is recorded as “binds”.

B4: M128p, N-terminal deletion mutant of human L1 ORF1p (residues 128-338) (domain or fragment)
chain: GMKREGKFREKRIKRNEQSLQEIWDYVKRPNLRLIGVPESDVENGTKLENTLQDIIQENFPNLARQANVQIQEIQRTPQRYSSRRATPRHIIVRFTKVEMKEKMLRAAREKGRVTLKGKPIRLTADLSAETLQARREWGPIFNILKEKNFQPRISYPAKLSFISEGEIKYFIDKQMLRDFVTTRPALKELLKEALNMERNNRYQPLQNHAKM
In the case of B4, in the data set “AUC [5]”, the Kd (in general, a measure of binding affinity in units of concentration) is roughly 3.4 µM and the “stoichiometry N” value was determined as 3. In the data set “AUC [6]”, this molecule had a Kd of roughly 35 µM.

B5: d53_pT-b (ssDNA)
DNA: GAGAGATTTTTTTTTTTTTTTTTTTTTTTTTTTTTTTTTTTTTTTTCCAGAGC
On to B5, for which, in the data set with L1 ORF1p [4], the binding result was “binds”.

B6: d60_c (ssDNA)
DNA: AGCGAGTTGATGTTAGACTGTGTACTTTTTGCGAGTTGATGTTAGACTGTGTACTTTTTA
Regarding B6, in the data set with L1 ORF1p [1], the “apparent K (half saturation)” value was roughly 1 nM.

As for GCGAGTTGATGTTAGACTGTGTACTTTTT (ssDNA) [d29_c], the binding signal in the data set with L1 ORF1p [7] was ~1 fold of mismatched duplex affinity.

B7: d29:d29_cmm mismatched duplex (dsDNA)
DNA 1: AAAAAGTACACAGTCTAACATCAACTCGC
DNA 2: GCGAGTTGACGTCAGACCGTGCACTTTTT
Turning to B7, the binding signal in the data set with L1 ORF1p [8] is ~1 fold of ssDNA d29_c affinity.

B8: d29:d29_c perfect duplex (dsDNA)
DNA 1: AAAAAGTACACAGTCTAACATCAACTCGC
DNA 2: GCGAGTTGATGTTAGACTGTGTACTTTTT
For B8, the binding signal with L1 ORF1p [9] is ~8 fold lower affinity than mismatched duplex N10.

B9: d120_c (ssDNA)
DNA: AGCGAGTTGATGTTAGACTGTGTACTTTTTGCGAGTTGATGTTAGACTGTGTACTTTTTAAGCGAGTTGATGTTAGACTGTGTACTTTTTGCGAGTTGATGTTAGACTGTGTACTTTTTA
Take B9: in the data set with L1 ORF1p [10], the binding result is “binds”.

B10: d60_orf1 (ssDNA)
DNA: GATCATGCAGGACAGTCGGATCGCAACCTGATTTACTGTGTCATATAGTACGTGATTCAG
For the molecule B10, the binding result with L1 ORF1p [4] is reported as “binds”.
